This is an account of results in patent publication US12030920 (IN3BIO, dated 2024).

This series deals with the molecule itself. The series is described as follows: self-assembly of CT-B subunits, pH shift, SDS-PAGE and Western blot.

B1: native CT-B protein (other)
chain: TPQNITDLCAEYHNTQIYTLNDKIFSYTESLAGKREMAIITFKNGAIFQVEVPGSQHIDSQKKAIERMKDTLRIAYLTEAKVEKLCVWNNKTPHAIAAISMAN
Take B1: the binding result is reported as “binds”.
